Laboratory results published in PMC9482650, “Quantitative fragmentomics allow affinity mapping of interactomes” (Nature Communications, 2022).

T1: PDZD7_3, Q9H5P4
T1 sequence (Q9H5P4 857-944, limits assumed, looked up): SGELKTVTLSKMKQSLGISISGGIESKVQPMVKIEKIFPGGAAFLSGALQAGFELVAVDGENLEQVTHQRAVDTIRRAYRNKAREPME

T2: GRIP1_4, Q9Y3R0
T2 sequence (Q9Y3R0 467-571, limits assumed, looked up): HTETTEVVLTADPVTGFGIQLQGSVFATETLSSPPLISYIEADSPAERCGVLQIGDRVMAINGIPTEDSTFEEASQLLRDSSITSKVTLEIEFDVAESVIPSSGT

T3: SNTG2, Q9NY99
T3 sequence (Q9NY99 68-166, limits assumed, looked up): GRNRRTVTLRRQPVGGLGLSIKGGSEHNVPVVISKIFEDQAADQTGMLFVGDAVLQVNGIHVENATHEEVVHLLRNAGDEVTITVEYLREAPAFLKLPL

T4: SHANK1, Q9Y566
T4 sequence (Q9Y566 658-767, limits assumed, looked up): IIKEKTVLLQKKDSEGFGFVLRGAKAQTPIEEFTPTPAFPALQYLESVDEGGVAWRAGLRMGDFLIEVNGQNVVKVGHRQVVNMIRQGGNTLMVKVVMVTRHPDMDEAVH

T5: SIPA1L2, Q9P2F8
T5 sequence (Q9P2F8 945-1036, limits assumed, looked up): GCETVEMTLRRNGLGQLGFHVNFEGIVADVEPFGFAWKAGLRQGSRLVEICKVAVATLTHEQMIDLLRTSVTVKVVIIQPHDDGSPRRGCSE

T6: PARD3B_1, Q8TEW8
T6 sequence (Q8TEW8 196-299, limits assumed, looked up): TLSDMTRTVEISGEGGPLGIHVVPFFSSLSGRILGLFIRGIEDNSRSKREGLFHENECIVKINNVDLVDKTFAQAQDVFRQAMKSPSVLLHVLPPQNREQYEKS

T7: PTPN13_1, Q12923
T7 sequence (Q12923 1088-1188, limits assumed, looked up): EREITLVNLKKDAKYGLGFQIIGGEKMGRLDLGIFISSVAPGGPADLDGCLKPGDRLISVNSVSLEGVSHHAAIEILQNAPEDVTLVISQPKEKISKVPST

T8: LNX2_2, Q8N448
T8 sequence (Q8N448 334-432, limits assumed, looked up): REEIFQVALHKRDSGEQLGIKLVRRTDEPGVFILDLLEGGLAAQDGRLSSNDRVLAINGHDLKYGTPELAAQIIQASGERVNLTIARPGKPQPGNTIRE

T9: MPP2, Q14168
T9 sequence (Q14168 180-250, limits assumed, looked up): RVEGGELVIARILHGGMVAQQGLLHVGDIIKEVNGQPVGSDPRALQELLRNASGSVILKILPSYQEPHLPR

T10: DLG3_3, Q92796
T10 sequence (Q92796 374-475, limits assumed, looked up): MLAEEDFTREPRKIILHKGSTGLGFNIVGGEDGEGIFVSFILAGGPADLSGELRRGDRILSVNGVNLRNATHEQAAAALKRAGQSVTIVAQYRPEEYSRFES

T11: DFNB31_1, Q9P202
T11 sequence (Q9P202 135-233, limits assumed, looked up): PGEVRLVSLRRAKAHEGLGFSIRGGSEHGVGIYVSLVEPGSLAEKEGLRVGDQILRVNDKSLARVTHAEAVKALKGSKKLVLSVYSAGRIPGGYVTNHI

B1: GRIK2, Q13002 (peptide)
chain: RRLPGKETMA
B2: GRIN2C, Q14957 (peptide)
chain: RRISSLESEV

Biological target: T1, PDZD7_3, Q9H5P4
Experiment: holdup assay
Parameters: key: below the threshold = too weak to quantify, mostly under pKd 3.1 to 4
Settings: plain residues with an end cap or a label only (N-terminal biotin on a linker: ado-ado)

Binder	pKd
B1	below the threshold
B2	4.32

Biological target: CASK, O14936
Experiment: holdup assay
Parameters: key: below the threshold = too weak to quantify, mostly under pKd 3.1 to 4
Settings: plain residues with an end cap or a label only (N-terminal biotin on a linker: ado-ado)

Chain of CASK, O14936 (O14936 487-570): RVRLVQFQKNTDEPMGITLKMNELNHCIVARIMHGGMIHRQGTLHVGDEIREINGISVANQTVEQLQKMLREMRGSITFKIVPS

Binder	pKd
B1	below the threshold
B2	below the threshold

Biological target: T2, GRIP1_4, Q9Y3R0
Experiment: holdup assay
Parameters: key: below the threshold = too weak to quantify, mostly under pKd 3.1 to 4
Settings: plain residues with an end cap or a label only (N-terminal biotin on a linker: ado-ado)

Binder	pKd
B1	below the threshold
B2	below the threshold

Biological target: GRASP, Q7Z6J2
Experiment: holdup assay
Parameters: key: below the threshold = too weak to quantify, mostly under pKd 3.1 to 4
Settings: plain residues with an end cap or a label only (N-terminal biotin on a linker: ado-ado)

Chain of GRASP, Q7Z6J2 (Q7Z6J2 96-193): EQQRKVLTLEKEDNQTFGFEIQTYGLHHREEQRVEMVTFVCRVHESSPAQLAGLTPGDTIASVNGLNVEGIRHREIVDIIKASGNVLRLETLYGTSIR

Binder	pKd
B1	below the threshold
B2	below the threshold

Biological target: Inadl_9, Q8NI35
Experiment: holdup assay
Parameters: key: below the threshold = too weak to quantify, mostly under pKd 3.1 to 4
Settings: plain residues with an end cap or a label only (N-terminal biotin on a linker: ado-ado)

Chain of Inadl_9, Q8NI35 (Q8NI35 1530-1615): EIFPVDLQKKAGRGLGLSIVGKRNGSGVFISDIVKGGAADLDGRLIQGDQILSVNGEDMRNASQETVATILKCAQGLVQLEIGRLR

Binder	pKd
B1	below the threshold
B2	below the threshold

Biological target: T3, SNTG2, Q9NY99
Experiment: holdup assay
Parameters: key: below the threshold = too weak to quantify, mostly under pKd 3.1 to 4
Settings: plain residues with an end cap or a label only (N-terminal biotin on a linker: ado-ado)

Binder	pKd
B1	below the threshold
B2	4.24

Biological target: MAGI1_1, Q96QZ7
Experiment: holdup assay
Parameters: key: below the threshold = too weak to quantify, mostly under pKd 3.1 to 4
Settings: plain residues with an end cap or a label only (N-terminal biotin on a linker: ado-ado)

Chain of MAGI1_1, Q96QZ7 (Q96QZ7 1-106): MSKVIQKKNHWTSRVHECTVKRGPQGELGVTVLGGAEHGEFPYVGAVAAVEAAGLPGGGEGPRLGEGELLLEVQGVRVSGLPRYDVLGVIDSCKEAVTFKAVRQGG

Binder	pKd
B1	below the threshold
B2	below the threshold

Biological target: T4, SHANK1, Q9Y566
Experiment: holdup assay
Parameters: key: below the threshold = too weak to quantify, mostly under pKd 3.1 to 4
Settings: plain residues with an end cap or a label only (N-terminal biotin on a linker: ado-ado)

Binder	pKd
B1	below the threshold
B2	below the threshold

Biological target: LNX1_1, Q8TBB1
Experiment: holdup assay
Parameters: key: below the threshold = too weak to quantify, mostly under pKd 3.1 to 4
Settings: plain residues with an end cap or a label only (N-terminal biotin on a linker: ado-ado)

Chain of LNX1_1, Q8TBB1 (Q8TBB1 261-371): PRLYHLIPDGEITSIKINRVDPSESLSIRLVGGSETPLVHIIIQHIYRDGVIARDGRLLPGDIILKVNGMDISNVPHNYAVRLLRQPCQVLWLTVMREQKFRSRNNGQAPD

Binder	pKd
B1	below the threshold
B2	4.34

Biological target: T5, SIPA1L2, Q9P2F8
Experiment: holdup assay
Parameters: key: below the threshold = too weak to quantify, mostly under pKd 3.1 to 4
Settings: plain residues with an end cap or a label only (N-terminal biotin on a linker: ado-ado)

Binder	pKd
B1	below the threshold
B2	below the threshold

Biological target: T6, PARD3B_1, Q8TEW8
Experiment: holdup assay
Parameters: key: below the threshold = too weak to quantify, mostly under pKd 3.1 to 4
Settings: plain residues with an end cap or a label only (N-terminal biotin on a linker: ado-ado)

Binder	pKd
B1	below the threshold
B2	below the threshold

Biological target: T7, PTPN13_1, Q12923
Experiment: holdup assay
Parameters: key: below the threshold = too weak to quantify, mostly under pKd 3.1 to 4
Settings: plain residues with an end cap or a label only (N-terminal biotin on a linker: ado-ado)

Binder	pKd
B1	below the threshold
B2	below the threshold

Biological target: IL16_1, Q14005
Experiment: holdup assay
Parameters: key: below the threshold = too weak to quantify, mostly under pKd 3.1 to 4
Settings: plain residues with an end cap or a label only (N-terminal biotin on a linker: ado-ado)

Chain of IL16_1, Q14005 (Q14005 210-306): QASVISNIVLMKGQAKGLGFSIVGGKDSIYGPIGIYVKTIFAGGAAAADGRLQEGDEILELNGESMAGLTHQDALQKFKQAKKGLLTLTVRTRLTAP

Binder	pKd
B1	below the threshold
B2	4.55

Biological target: MAGI2_6, Q86UL8
Experiment: holdup assay
Parameters: key: below the threshold = too weak to quantify, mostly under pKd 3.1 to 4
Settings: plain residues with an end cap or a label only (N-terminal biotin on a linker: ado-ado)

Chain of MAGI2_6, Q86UL8 (Q86UL8 1141-1229): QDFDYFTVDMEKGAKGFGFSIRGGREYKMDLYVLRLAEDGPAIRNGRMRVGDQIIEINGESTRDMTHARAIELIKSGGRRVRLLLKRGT

Binder	pKd
B1	below the threshold
B2	4.31

Biological target: T8, LNX2_2, Q8N448
Experiment: holdup assay
Parameters: key: below the threshold = too weak to quantify, mostly under pKd 3.1 to 4
Settings: plain residues with an end cap or a label only (N-terminal biotin on a linker: ado-ado)

Binder	pKd
B1	below the threshold
B2	below the threshold

Biological target: T9, MPP2, Q14168
Experiment: holdup assay
Parameters: key: below the threshold = too weak to quantify, mostly under pKd 3.1 to 4
Settings: plain residues with an end cap or a label only (N-terminal biotin on a linker: ado-ado)

Binder	pKd
B1	below the threshold
B2	below the threshold

Biological target: NHERF4_2, Q86UT5
Experiment: holdup assay
Parameters: key: below the threshold = too weak to quantify, mostly under pKd 3.1 to 4
Settings: plain residues with an end cap or a label only (N-terminal biotin on a linker: ado-ado)

Chain of NHERF4_2, Q86UT5 (Q86UT5 220-308): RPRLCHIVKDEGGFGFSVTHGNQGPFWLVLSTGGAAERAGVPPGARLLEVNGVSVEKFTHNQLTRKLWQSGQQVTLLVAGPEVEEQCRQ

Binder	pKd
B1	below the threshold
B2	below the threshold

Biological target: ARHGEF12, Q9NZN5-2
Experiment: holdup assay
Parameters: key: below the threshold = too weak to quantify, mostly under pKd 3.1 to 4
Settings: plain residues with an end cap or a label only (N-terminal biotin on a linker: ado-ado)

Chain of ARHGEF12, Q9NZN5-2 (Q9NZN5 other isoform, or with tags, fused parts or gaps): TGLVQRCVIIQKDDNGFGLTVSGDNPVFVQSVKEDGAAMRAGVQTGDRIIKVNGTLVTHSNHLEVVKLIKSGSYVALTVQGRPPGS

Binder	pKd
B1	below the threshold
B2	4.31

Biological target: SCRIB_3, Q14160
Experiment: holdup assay
Parameters: key: below the threshold = too weak to quantify, mostly under pKd 3.1 to 4
Settings: plain residues with an end cap or a label only (N-terminal biotin on a linker: ado-ado)

Chain of SCRIB_3, Q14160 (Q14160 999-1103): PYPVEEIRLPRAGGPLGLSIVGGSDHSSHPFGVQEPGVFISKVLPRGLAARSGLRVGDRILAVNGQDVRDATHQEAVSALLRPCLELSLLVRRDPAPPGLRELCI

Binder	pKd
B1	below the threshold
B2	4.55

Biological target: T10, DLG3_3, Q92796
Experiment: holdup assay
Parameters: key: below the threshold = too weak to quantify, mostly under pKd 3.1 to 4
Settings: plain residues with an end cap or a label only (N-terminal biotin on a linker: ado-ado)

Binder	pKd
B1	below the threshold
B2	4.11

Biological target: NHERF4_1, Q86UT5-2
Experiment: holdup assay
Parameters: key: below the threshold = too weak to quantify, mostly under pKd 3.1 to 4
Settings: plain residues with an end cap or a label only (N-terminal biotin on a linker: ado-ado)

Chain of NHERF4_1, Q86UT5-2 (Q86UT5 other isoform, or with tags, fused parts or gaps): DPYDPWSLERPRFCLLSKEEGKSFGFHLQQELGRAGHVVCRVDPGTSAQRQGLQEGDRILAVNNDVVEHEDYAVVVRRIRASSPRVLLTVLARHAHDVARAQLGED

Binder	pKd
B1	below the threshold
B2	3.71

Biological target: FRMPD4, Q14CM0
Experiment: holdup assay
Parameters: key: below the threshold = too weak to quantify, mostly under pKd 3.1 to 4
Settings: plain residues with an end cap or a label only (N-terminal biotin on a linker: ado-ado)

Chain of FRMPD4, Q14CM0 (Q14CM0 67-160): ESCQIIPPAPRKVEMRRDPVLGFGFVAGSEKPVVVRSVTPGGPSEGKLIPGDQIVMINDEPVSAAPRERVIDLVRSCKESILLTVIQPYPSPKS

Binder	pKd
B1	below the threshold
B2	below the threshold

Biological target: T11, DFNB31_1, Q9P202
Experiment: holdup assay
Parameters: key: below the threshold = too weak to quantify, mostly under pKd 3.1 to 4
Settings: plain residues with an end cap or a label only (N-terminal biotin on a linker: ado-ado)

Binder	pKd
B1	below the threshold
B2	3.67

Biological target: GRID2IP_2, A4D2P6
Experiment: holdup assay
Parameters: key: below the threshold = too weak to quantify, mostly under pKd 3.1 to 4
Settings: plain residues with an end cap or a label only (N-terminal biotin on a linker: ado-ado)

Chain of GRID2IP_2, A4D2P6 (A4D2P6 272-370): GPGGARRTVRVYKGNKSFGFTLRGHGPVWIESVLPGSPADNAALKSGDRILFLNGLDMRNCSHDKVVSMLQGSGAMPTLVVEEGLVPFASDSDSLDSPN

Binder	pKd
B1	below the threshold
B2	3.54

Biological target: NHERF2_2, Q15599
Experiment: holdup assay
Parameters: key: below the threshold = too weak to quantify, mostly under pKd 3.1 to 4
Settings: plain residues with an end cap or a label only (N-terminal biotin on a linker: ado-ado)

Chain of NHERF2_2, Q15599 (Q15599 142-238): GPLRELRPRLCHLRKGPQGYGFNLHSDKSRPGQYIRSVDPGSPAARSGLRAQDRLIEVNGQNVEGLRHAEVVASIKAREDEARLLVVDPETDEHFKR

Binder	pKd
B1	below the threshold
B2	below the threshold

Biological target: LDB3, O75112
Experiment: holdup assay
Parameters: key: below the threshold = too weak to quantify, mostly under pKd 3.1 to 4
Settings: plain residues with an end cap or a label only (N-terminal biotin on a linker: ado-ado)

Chain of LDB3, O75112 (O75112 1-94): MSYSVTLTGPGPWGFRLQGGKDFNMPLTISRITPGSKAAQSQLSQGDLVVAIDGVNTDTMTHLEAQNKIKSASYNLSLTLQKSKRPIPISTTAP

Binder	pKd
B1	below the threshold
B2	below the threshold
